Results taken from patent publication US20250339504A1, “CANCER VACCINE WITH USE OF COMMON CANCER ANTIGEN COCKTAIL, TCR/CAR-T CELL THERAPEUTIC, COMPANION DIAGNOSTIC METHOD, AND METHOD FOR DIAGNOSING RISK OF CANCER ONSET BY DETECTING CIRCULATING TUMOR CELLS” (National Cancer Center, priority 2022, published 2025).

Columns and labels:
[1] = tested on: T2 cells to which the peptide had been exogenously bound
Description: (§1) Target cells were labeled with a fluorescent dye (calcein) and cocultured with each T cell clone for 4 hours, and the cytotoxic activities against target cells were evaluated on the basis of attenuation of fluorescence as an indicator. […] The cytotoxic activities were evaluated with cancer cell lines endogenously expressing HSP105 as targets. Caski cells and SiHa-A2 cells were used as HSP105-positive cell lines, and an SW620 cell line and HepG2 cell line were used as HSP105-negative cell lines.

[2] = tested on: T2 cells to which an HSP105-derived peptide had been exogenously bound; assay: IFN-γ ELISPOT of HLA-A2-restricted HSP105-specific T cell clones; type: cell-based; conditions: coculture with HLA-A2 T2 cells in the presence of the peptide, 20 hours
Description: HSP105-HLA-A2 Dextramer was not capable of being sufficiently stained, thus being unavailable for detection of binding T cells. […] CD107a-positive CD8 T cells were selected by single sorting, and cultured on allofeeder cells to establish T cell clones.
The established T cell clones were cocultured with target cells (T2 cells) to which an HSP105-derived peptide had been exogenously bound for 20 hours, and the antigen stimulation-dependent IFN-γ productions were evaluated. The antigen specificities were evaluated by using cells to which a HIV-derived peptide had been bound as a negative control.

Description for CasKi cell line: as §1
Description for SW620 cell line: as §1
Description for SiHaA2 cell line: as §1

Molecule	cytotoxic activity (SiHaA2 cell line)	cytotoxic activity (SW620 cell line)	damaging (cytotoxic) activity [1]	cytotoxic activity (CasKi cell line)	antigen-specific IFN-γ production capability [2]
10G7: HLA-A2-restricted T cell clone/TCR recognizing HSP105-derived peptide; SEQ ID NO: 197, 198 (protein, listed as Homo sapiens) chain 1: MWGVFLLYVSMKMGGTTGQNIDQPTEMTATEGAIVQINCTYQTSGFNGLFWYQQHAGEAPTFLSYNVLDGLEEKGRFSSFLSRSKGYSYLLLKELQMKDSASYLCAVRALREAGTALIFGKGTTLSVSS chain 2: MDTWLVCWAIFSLLKAGLTEPEVTQTPSHQVTQMGQEVILRCVPISNHLYFYWYRQILGQKVEFLVSFYNNEISEKSEIFDDQFSVERPDGSNFTLKIRSTKLEDSAMYFCASSQNREAFFGQGTRLTVV	No significant cytotoxic activity	No significant cytotoxic activity	exhibited damaging activity	significant cytotoxic activity	strong IFN-γ production capability
10C9: HLA-A2-restricted T cell clone/TCR recognizing HSP105-derived peptide; SEQ ID NO: 202, 203 (protein, listed as Homo sapiens) chain 1: MSLSSLLKVVTASLWLGPGIAQKITQTQPGMFVQEKEAVTLDCTYDTSDPSYGLFWYKQPSSGEMIFLIYQGSYDQQNATEGRYSLNFQKARKSANLVISASQLGDSAMYFCAMRDRNTGNQFYFGTGTSLTVIP chain 2: MGFRLLCCVAFCLLGAGPVDSGVTQTPKHLITATGQRVTLRCSPRSGDLSVYWYQQSLDQGLQFLIQYYNGEERAKGNILERFSAQQFPDLHSELNLSSLELGDSALYFCASSVEVYNEQFFGPGTRLTVL	No significant cytotoxic activity	No significant cytotoxic activity	exhibited damaging activity	significant cytotoxic activity	strong IFN-γ production capability
7B9: HLA-A2-restricted T cell clone/TCR recognizing HSP105-derived peptide; SEQ ID NO: 195, 196 (protein, listed as Homo sapiens) chain 1: METLLGVSLVILWLQLARVNSQQGEEDPQALSIQEGENATMNCSYKTSINNLQWYRQNSGRGLVHLILIRSNEREKHSGRLRVTLDTSKKSSSLLITASRAADTASYFCATDTGGAQKLVFGQGTRLTINP chain 2: MDSWTLCCVSLCILVAKHTDAGVIQSPRHEVTEMGQEVTLRCKPISGHDYLFWYRQTMMRGLELLIYFNNNVPIDDSGMPEDRFSAKMPNASFSTLKIQPSEPRDSAVYFCASSPDRGETQYFGPGTRLLVL	No significant cytotoxic activity	No significant cytotoxic activity		significant cytotoxic activity	strong IFN-γ production capability
11B9: HLA-A2-restricted T cell clone/TCR recognizing HSP105-derived peptide; SEQ ID NO: 193, 194 (protein, listed as Homo sapiens) chain 1: MACPGFLWALVISTCLEFSMAQTVTQSQPEMSVQEAETVTLSCTYDTSESDYYLFWYKQPPSRQMILVIRQEAYKQQNATENRFSVNFQKAAKSFSLKISDSQLGDAAMYFCAYRIPGAGSYQLTFGKGTKLSVIP chain 2: MGTRLLCWVVLGFLGTDHTGAGVSQSPRYKVAKRGQDVALRCDPISGHVSLFWYQQALGQGPEFLTYFQNEAQLDKSGLPSDRFFAERPEGSVSTLKIQRTQQEDSAVYLCASSPGLAGGAQETQYFGPGTRLLVL					largely lower reactivity than the other clones
